Assay results: patent publication EP2096121A1 (Institut Pasteur Of Shanghai, dated 2009)

Legend:
[1] = biological target: HIV-1 envelope pDOL (subtype B) (HIV-1 (subtype B)); assay: cell-based or functional assay
[2] = biological target: HIV-1 envelope Q168 (subtype A) (HIV-1 (subtype A)); assay: cell-based or functional assay

B1: GPI-scFv (TG15): scFv/hinge/his-tag/DAF, anti-HIV-1 gp41 single-chain Fv derived from human monoclonal antibody TG15, GPI-anchored (scFv)
scFv: QVQLQQWGAGLLKPSETLSLTCAVYGDSFGGHHWSWIRQPPGKGLEWIGEINFLGNTNYNPSLKSRVAISKDTSKNQFSLTLNSATAADTAVYFCARRETMETASRKRAFDIWGQGTMETVTVSAGGGGSGGGGSGGGGSAELMETTQSPPTLSASVGDRVTITCRASQSLSGWVAWYQQKPGKAPKLLIYKASTLESGVPSRFSGSGSGTVFALTISSLQPDDSATYYCQQHSAFSSTFGQGTKLEIKRTPLGDTTHTSGHHHHHHGSGTTSGTTRLLSGHTCFTLTGLLGTLVTMETGLLT
relative luciferase activity (RLA), single-cycle pseudotype infectivity, CEMss-GPI-scFv compared to CEMss-eGFP [1]: 8 fold reduction | relative luciferase activity (RLA), single-cycle pseudotype infectivity, CEMss-GPI-scFv compared to CEMss-eGFP [2]: 180 fold reduction
